# Reference: the nanobody polyreactivity screen of Harvey et al. (2022)
# Experiment: yeast display, Sf9 membrane polyspecificity reagent, FACS + sequencing; frameworks hold sequencing errors
# Summary of the method: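 Nanobodies came from a synthetic yeast display library in Saccharomyces cerevisiae BJ5465, induced with galactose for 36–48 hours and stained for 1 hour at 4 °C with 10% biotinylated, detergent-solubilized Sf9 membrane reagent. Cells were enriched on streptavidin microbeads and then FACS-sorted, with low and high (top ~1%) gates set on anti-HA fluorescence for expression and streptavidin fluorescence for reagent binding. Each polyreactivity label reflects the gate a clone came from. Genes were amplified by colony PCR, sequenced by MiSeq 2 × 250 and filtered by CDR length.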
row,Sequence,polyreactivity (PSR sort gate)
1,QVQLVESGGGLVQAGGSLRLSCAASGIIFDTNAIGWYSQAPGKERELVATITQRGGTTYYADSVKGRFTISRDNAKNTVYLQMNSLKPEDTAVYYCNAGPVRLPYDSWGQGSQVTVSS,low polyreactivity
2,QVQLVESGGGLVQAGGSLRLSCSASGTILYFYAMGWYRQAQGKERELVAAIDSGGSTDYADSVKGRFTISRYNAKNTVYLQMNSLKPEDTAVYYCAAYPWERYTWWYVYRGHVYWGQGTQVTVSS,low polyreactivity
3,QVQLVESGGGLVQAGGSLSLSCAATGSIFGGNAMGWKRQAPGKERELVATITDRGSSTYYADSVKGRFTISRDNAKNTVYLRMHSLNPDDTAVYYCANAFPDVPEHDYGGQGTQVTVSS,low polyreactivity
4,QVQLVESVGGLVQAGGSLRLSSAASGRTFYFYTMGWYTQAPGKERELVATIRWSAGSTYYADSVKGRFTISRDNAKNTVYLQMNSLKPEDTAVYYCNADPYVYSSWQYGYWGQGTQVTVSS,high polyreactivity
5,QVQLVESGGGLVQAGGSLRLSCAASGIIFRSYAMGWYRQAPGKERELVAAISRRGGSTYYADSVKGRFTISRDNAKNTVYLQMNSLKPEDTAVYYCAATVLSSPEPYDYWGQGTQVTVSS,high polyreactivity
6,QVQLVESGGGLVQAGGSLRLSCAASGFTLYEYAMGWYRQAPGKERELVAAISSAGNTNYADSVKGRFTISRDNAKNTVYLQLNSLKPEDTAVYYCAKYRYDYTKTEGGYWGQGTQVTVSS,low polyreactivity
7,QVHLVESGGGLVQAGGSLRLSCAASGSIFYYNTMGWYRQAPGKERELVAAIRFDDGSTYYADSVKGRFTISRDNAKNTVYLQMNSLKPEDTAVYYCAADWIVVSEFGLDYHMDYWGQGTQVTVSS,low polyreactivity
8,QVQLVESGGGLVQAGGSLRLSCAPSGFTFSRYAMGWYRQAPGKERELVAAITRGGGNTYYADSVKGRFTISRDNAKNTVYLQMNSLKPEDTAVYYCNAQVGNFGYRSGGYDYWGQGTQVTVSS,high polyreactivity
9,QVQLVESGGGLVQAGGSLRLSCAASGFIFYINAMGWYRQAPGKERELVAAISTSGGSTYYADSVKGRFTISRDNAKNTVYLQMNSLKPEDSAVYYCAAEGSYWYYSYDYWGQGTQVTVSS,high polyreactivity
10,QVQLVESGGGLVQAGGSLRLSCAASGSMFEGYAMGRYLQAPGKVRELVAAMTWSSGSTYYADSVKGRFTISRDNAKNTVYLQMNSLKPEETAVYSCAVDGGDFSSYGYWGQGTQVTVSS,low polyreactivity
11,QGQLVESCGGLVQAGGSLRLSCAASGRTFYYYAMGWYRQAPRKERELVAAMTSGGRTNSADSVKGRFTSSRDKATNTDSLQMNSLKPEDTAVYYCAKPPYSQYEFDYWGQGTQVTVSS,high polyreactivity
12,HVQLVESGGGLVQAGGSLRLSCAASGRIFPSNTMGWYRQAPGKERELVAAITRGDRTNYADSVKGRFTISRDNAKNTVYLQMNSLKPVDTAVYYCNARWGLPFGSGYYYWGQGTQVTVSS,low polyreactivity
13,QVQLVESGGGLVQAGGSLRLSCAASGFIFSLYAMGWYRQAPGKERELVAVITWSDGRTYYADSVKGRFTISRDNAKNTVYLQMNSLKPEDTAVYYCAAADWITEYDYWGQGTQVTVSS,low polyreactivity
14,QVQLVESGGGLVQAGGSLRLSCAASGFIFRTYAMAWYRQAPGKERELVAAIRQSAGRTYYADSVKGRFTISRDNAKNTVYLQMISLKPEDTAVYYCAADRSPYRRQYDYWGQGTQVTVSS,high polyreactivity
15,QVQLQESGGGLVKAGGSLRLSCAASGNISNHNDMGWYRQAPGKEREFVAGITAGGNTNYADSVKGRFTISRDNAKNTVYLQMNSLKPEDTAVYYCAAYPDYAKSYGYWGQGTQATVSS,low polyreactivity
16,QVQLVESGGGLVQARGSLRLSCAASGFTFPQYAMAWYRQAPGKERELVAVISWSGSSTYYADSVKGRFTISRDNAKNTVYLQMNSLKPEDTAVDYCNTRKLYQVDYDYWGQGTQVTVSS,high polyreactivity
17,QVQLVESGGGLVQAGGSLRLSCAASGRTFRTNTMGWYRQAPGKERELVAAIRYIGGSTYYADSVKGRFTISRDNAKNTFYLLMNSLKPEDTAVYYCAAYRYGSRYGYEYWGQGTQVTVSS,high polyreactivity
18,QVQLVESGGGLVQAGGSLRLSCAASGFIFWDYAMGWNRQAPRKERELVAAISDSGGDTYYADSVKGRFTISRDNAKNTVYLQMNSLIPEDTAVYYCAADVVLWVFRGQQYDYWGQGTQVTVSS,low polyreactivity
19,QVQLVESGGGLVQAGGSLRLSCAASGFIFAYYAMGWYRQAPGKERELVAAITIDGSTNYADSVKGRFTISRDNAKNTVYVQMNSLKPEDSAVYYCAAAEHPPVWYGYWGQGTQVTVSS,low polyreactivity
20,QVQLVESGGGLVQAGGSLRLSCAASGRIFGINAMGWYRQAPGKERELVAAINWSGGSTYYADSVKGRFTISRDNAKNTVYIQMNSLKPEDSAVYYCAAQKYKRVGYWGQGTQVTVSS,high polyreactivity
21,QVQLVESGGGLVQAGGSLRLSCAASGRIFYNNVMGWYRQAPGKERELVAAISGNGGSTYYADSVKGRFTISRDNAKNTVYLQMNSLKPEDTAVYYCAKGSHSYLISTGDYWGQGTQVTVSS,low polyreactivity
22,QVQLVESGGRLVQAGGSLRLSCAASGSTFDNNAMGWYRQAPGKEREFVAAITYSGGGSTSYADSVKGRFTISRDNAKNTVYLQMNSLKAEDTAVYFCAARDFETDGYTLVAYIYWGQGSQVTVSS,low polyreactivity

row,Sequence,polyreactivity (PSR sort gate)
1,QVQLVESGGGLVQAGGSLRLSSAASGRIFWPNTIGWYRQAPGKERELVAAISWSGGSTYYADSVKGRFTISRDNAKNTVYLQMNSLIPEDTAVYYFNARYPNTRKYDYWGQGTQVTVSS,high polyreactivity
2,QVQLVESGGGLVQAGGSLRLSCAASGLIFRYYAMGVYRQAPGHERELVAALTSTGRTYYADSVKGRFTISRDNAKNTVYVQMNSLKPEDTAVYYCNTDQFADYHTDFWSDYEYWGQGTQVTVSS,low polyreactivity
3,QVQLVESGGGLVQAGGSLRLSCAPSGFTFGSNAMGWYRQAPGKERELVAAITWRGGSTYYADSVKGRFTISRDNAKNTVYLQMNSLKPEDTAVYYCAAVRSASSWQYIWLKYYYWGQGTQVTVSS,high polyreactivity
4,QVQLVESAGGLVQAGGSLRLSCAASGITFKYNAMGWYRQAPGKERELVAAISKGGGSTYYADSVKGRFTISRDNAKNTVYLQMNSLKPEDTAVYYCAARRWYRFDYWGQGTQVTVSS,high polyreactivity
5,QVQLVESGGGLVQAGGSLRLSCAASGFTFRRNTMGWYRQEPGKERELVAAITQRGGSTYYADSVKGRFTISRDNAKNTVYLQMNSLKPEDTAVYYCAVERHSYIYKYDYWGQGTQVTVSS,high polyreactivity
6,QVQLVESGGGLVQAGGSLRLSCAASGRIFDYNSMGWSRPAPGKDRELVASITQRGDIPYYADSVKGRFTSSRDNAKNTVFLQMNSLNPDETAVYYGNADGVLVWVLPYVLYTGDYWGQGTQVTVSS,low polyreactivity
7,QVQLLESGGGLVQAGGILRLSCAASGIIFRYYTMGWYRPAPGKERELVAAITSGGSTNYADSVKGRFTISRDNAKHTVYLQMNRLKPEDTAVYYCRQLSVWGYDYWGQGTQVTVSS,high polyreactivity
8,QVQLVESGGGLVQAGGSLRLSCAASGRIFGRYAMGWYRQAPGKERELVAAISSGGNTYYADSVKGRFTISRDNAKNTVYLQMISLKPEDTAVYYCNALYYRPPGYDYWGQGTQLTVSS,high polyreactivity
9,QVQLVESGGGLVQAGGSHRLSCAASGSTFIDYAMGWYRQAPGKERELVAAITNGGNTKYADSVKGRFTISRDNAKNTVYLQMNSLKPEDTAVYYCAREPSIFTPSYDYWGQGTQVTVSS,low polyreactivity
10,QVQLVESGGGLVQAGGSLRLSCAASGRIFGGNALGWYRQAPGYARALVAAISWIGGTTYYADSVKGRFTISRDNAKNTVYLQMNSLKPEDTAVYYCAAYRYRPHVHRYYRYDYWGQGTQVTVSS,high polyreactivity
11,QVQLVESGGGLVQAGGSLRLSCAASGSISDVYAMGWYRQAPGKERELVAAITSGASTYYADSVKGRFTISRDNAKNTVYLQMNSLKPEDTAVYYCAADSDSQWGMDYWGQGTQVTVSS,low polyreactivity
12,QVQLVESGGGLVQAGGSLRLRCAASGRTFVGTAMGWYRQAPGKERELVAAISWDGGSPYYADSVKGRFTISRDNAKNTVYLQMNSLKPEDTAVYYCAALYRPSAFRGYGYWGQGTQVTVSS,high polyreactivity
13,QVQLVESGGGLVQAGGSLRLSCAASGRIFLDYAMGWYRQAPGKERELVAAINSGGRTNYADSVKGRFTISRDNAKNTVYLQMNSLKPEDTAVYYCAAGYWPRWFWPYEYWGQGTQVTVSS,low polyreactivity
14,QVQLVESGGGLVQAAGSLRISCAASGRTFATNAMGWYRQAPGKERELVAVISASGGSTYYADSVKGRFTISRDNAKNTVYLQMNSLKPEDTAVYYCAADVYRRYDYWGQGTQVTVSS,high polyreactivity
15,QVQLVESGGGLVQAGGRLRLSCAASGFIYRPYLMGWYRQATGKEMEFVAAISGRGGSTYYADSVKGRFTISRDNAKKTVYLQMNSLKPEDTAVYYCNAVYIYTGVGYNYWGQGTQVTVSS,high polyreactivity
16,QVQLVESGGGLVQAGGSLRLSCAASGRLFVYNAMGWYRQAPGKERELVAAISWRGGSTYYADSVKGRFTISRDNAKNTVYLQMYSLKPEDTAVYDCAAQRTARQFDYWGQGTQVTVSS,high polyreactivity
17,QVQLVESGGGLVQAGGRLRLSCAASGRIFSINAMGWYRQAPGKERELVAAISNRGGSTYYADSVKGRFTISRDNAKNTVYLQLNSLKPEDTAVYYCAARVATSGNYAPYYYWGQGTQVTVSS,high polyreactivity
18,QVQLVESGGGLVQAGGSLRLSCAASGSTFYSYAMGWYRQAPGKERELVADIDWSGGSTYYADSVKGRFTISRDNAKNTVYLQMNSLKPEDTAVYYCNAERGATGYYVTGDDYWGQGTQVTVSS,low polyreactivity
19,QVQLVESGGGLVQAGGSLRLSCAASGRIYSTNAMRWYRQAPGKEREFVAAIYWIGGSTYYADSVKGRFTISRDNAKNTVYLQMNSLKPEDTAVYYCAAGVYDDYPWSYDIFNLYDYWGQGTQVTVSS,low polyreactivity
20,QVQLVESGGGLVQAGGSLRLTCAASGSIFYVNAMGWYRQAPGKERESVAGITGSGSRTYYADSVKGRFTISRDNAKNTVYLQMNSLKPEDTAVYYCARLTRTSRGLYDYWGQGTQVTVSS,high polyreactivity
21,QVQLVESGGGLVQAGGSLRLSCAASGSTFHTFAMGWYRPAPGKERELVAAINRRTGGTYYADSVKGRFTISRDNAKNTVDLQMNSLKPEDTAVFYCATDWFSYRGGIFDSWGQGTQVTVSS,low polyreactivity
